From patent US12466859B2, “Desmoglein 2 (DSG2) binding proteins and uses therefor” (UNIVERSITY OF WASHINGTON THROUGH ITS CENTER FOR …, priority 2013, dated 2025)
Positions count from the first letter of the chain named. Names may count otherwise. “Also recorded” adds a separate entry of the source.

Key:
[1] = system: polarized colon cancer T84 cells; experiment: Transepithelial electrical resistance (TEER) on polarized T84 cells; format: cell-based; conditions: for Effect on the TEER: added for 1 hour to the apical side of transwell cultures
Procedure: (§1) FIG. 5A-5B. Correlation of reduced DSG2 binding with the ability to open epithelial junctions. FIG. 5A) Transepithelial electrical resistance (TEER) measured on polarized colon cancer T84 cells. Cells were cultured in transwell chambers until the TEER was constant, i.e. tight junctions had formed. A total of 5 μg of dimeric Ad3 fiber knobs in PBS was then added for 1 hour to the apical chamber. TEER was measured at the indicated time points. N=6. For time points 1.5 and 4 hours the difference between JO-1 vs D261N and N186D was significant (p<0.01). The arrows indicate the addition and removal of Ad3 fiber knobs. FIG. 5B) Enhancement of irinotecan therapy. A total of 4×10^6 A549 cells were injected subcutaneously into CB17-SCID/beige mice. Once the tumor reached a volume of ˜100 mm^3 (day 15 after implantation), the mice were injected intravenously with 2 mg/kg JO-1, E299V, N186D, or PBS, followed by an intravenous injection of irinotecan (37.5 mg/kg) one hour later. The treatment was repeated on day 25. N=5. […] The difference between “irinotecan” vs “JO-1+irinotecan” was significant (p<0.01) from day 20 on.
FIG. 9A1-9C. Analysis of dimeric Ad3 fiber knob mutants with increased affinity to DSG2. FIG. 9A1-9A2) Competition of Ad3-GFP virus infection on HeLa cells with dimeric affinity-enhanced mutant Y250F and JO-1 (dimeric wt Ad3 fiber knob). The experimental setting is as described for FIG. 3C. FIG. 9A1) percentage of GFP positive cells. FIG. 9A2) mean fluorescence intensity. N=3. The standard deviation was less than 10%. FIG. 9B1-9B2) Competition of Ad3-GFP virus infection on HeLa cells by Ad3 knob mutants with enhanced DSG2 binding but without dimerization domain. 1.5×10^5 HeLa cells were seeded into 24 well plates. Cells were incubated with the Ad3 knob mutants at the increasing concentrations for one hour at room temperature. 100 pfu/cell of Ad3GFP virus were then added and GFP expression was analyzed 18 hours later. FIG. 9B1) % of GFP+cells; FIG. 9B2) MFI. FIG. 9C) TEER on colon cancer T84 cells. The experimental setting was the same as for FIG. 5A. The TEER at 4 hours is shown. N=3.
Permeability assay. A total of 5×10^5 T84 cells were seeded in 12 mm transwell inserts (PET membrane, with 0.4 μm pore size (Corning, NY) and cultured for >14 days until transepithelial electrical resistance (TEER) was stable. Culture medium was changed every 2-3 days. The cells were exposed to DSG2 ligands (20 μg/ml) in adhesion medium (DMEM, 1% FBS, 2 mM MgCl2, 20 mM HEPES) for 15 min at room temperature and TEER was measured and calculated as described elsewhere (39).

A549 xenograft tumors = experiment: Enhancement of irinotecan therapy in A549 xenograft tumors; format: in vivo, CB17-SCID/beige mice; conditions: 2 mg/kg i.v. one hour before irinotecan 37.5 mg/kg i.v.; tumor volume
Procedure: as §1
(§2) FIG. 10A-10C. Combination of affinity-enhanced JO-1 versions with chemotherapy. FIG. 10A) Enhancement of irinotecan (I) therapy. The experimental setting was the same as in FIG. 5B. […] N=5. […] Mammary fat pad tumors were established from primary ovarian cancer ovc316 cells. Treatment was started when tumors reached a volume of 100 mm^3. Mice were injected intravenously with 2 mg/kg JO-1 or with 0.5 mg/kg JO-4, followed by an intravenous injection of PEGylated liposomal doxorubicin (PLD) (1 mg/kg) one hour later. Treatment was repeated weekly. […] A total of 4×10^6 TNBC MDA-MB-231 cells were injected into the mammary fat pad of CB17 SCID-beige mice. JO-4 (2 mg/kg) was intravenously injected 1 hour before the application of cetuximab (C) (10 mg/kg, i.p.) and nab-paclitaxel (nab-P) (5 mg/kg, i.v.). Treatment was given weekly. N=10 P<0.01 at day 25 for nab-P+C vs JO-4+nab-P+C.
A549, MDA-MB-231, and ovc316 xenograft tumors were established by injection of the corresponding tumor cells into the mammary fat pad (1:1 with Matrigel) of CB17 mice. TC1-DSG2 tumors were established by subcutaneous injection of TC1-DSG2 cells into DSG2 transgenic mice. JO-0, JO-1, JO-2, or JO-4 were intravenously injected one hour before the application of chemotherapeutic drugs: Irinotecan/Camptosar™ (Pfizer Inc., Groton, CT), PEGylated liposomal doxorubicin/Lipodox™ (Sun Pharmaceuticals IN, India), cetuximab/Erbitux™ (ImClone, Somerville, NJ), nanoparticle albumin conjugated paclitaxel/Abraxane” (Abraxis Biosciences, Summit, NJ). Tumor volumes were measured three times a week. Each treatment group consisted of a minimum of 5 mice.

ovc316 xenograft tumors = experiment: Enhancement of PLD therapy in ovc316 ovarian cancer xenograft tumors; format: in vivo, CB17 mice; conditions: weekly
Procedure: as §2
A549, MDA-MB-231, and ovc316 xenograft tumors were established by injection of the corresponding tumor cells into the mammary fat pad (1:1 with Matrigel) of CB17 mice. TC1-DSG2 tumors were established by subcutaneous injection of TC1-DSG2 cells into DSG2 transgenic mice. […] Tumor volumes were measured three times a week. […]

B1: D261N (protein)
chain: MKVSALKEKVSALKEKVSALKEKVSALKEKVSALKEGSGGGSGGGSGGGSNSIALKNNTLWTGPKPEANCIIEYGKQNPDSKLTLILVKNGGIVNGYVTLMGASDYVNTLFKNKNVSINVELYFDATGHILPDSSSLKTDLELKYKQTADFSARGFMPSTTAYPFVLPNAGTHNENYIFGQCYYKASNGALFPLEVTVMLNKRLPDSRTSYVMTFLWSLNAGLAPETTQATLITSPFTFSYIREDD
[1]
  Effect on the TEER: no effect

B2: JO-4 (protein)
chain: B1 chain with Y177F, N188D
[1]; dimeric affinity-enhanced mutants, TEER at 4 hours
  TEER compared to JO-1: significantly higher
A549 xenograft tumors
  Enhancement of irinotecan therapy: significantly more than JO-1; also recorded: significantly more efficient than JO-2
ovc316 xenograft tumors; 0.5 mg/kg i.v. one hour before PLD 1 mg/kg
  Enhancement of PLD therapy: enhances PLD therapy

B3: JO-1: dimeric protein that contains the wild-type Ad3 fiber knob and a self-dimerization domain (SEQ ID NO:27) (protein, listed as Homo sapiens)
chain: B1 chain with N188D
modifications: dimer
[1]
  Effect on the TEER: rapid decrease in the TEER
A549 xenograft tumors
  Enhancement of irinotecan therapy: enhanced irinotecan therapy; also recorded: significant
ovc316 xenograft tumors; 2 mg/kg i.v. one hour before PLD 1 mg/kg
  Enhancement of PLD therapy: significantly increased the treatment efficiency
